Blank lines part the entries; values can stand above or below the molecule they belong to.
Experiments:
[1] = biological target: GFP-OsKCH1/KCH2 (O. sativa) (UniProt Q0IMS9); assay: single-molecule photobleaching (TIRF microscopy); GFP-tagged motors bound to surface-immobilized microtubules in the single-molecule motility buffer without ATP, room temperature; photobleaching steps counted
[2] = biological target: GFP-OsKCH2(289–767)^T (not stated | O. sativa); assay: as above
[3] = biological target: GFP-OsKCH2(289–720) (O. sativa); assay: sucrose gradient centrifugation; 5–20% sucrose gradient in BRB80 with 25 mM KCl, 150,000 x g, 4 °C, 18 h; fractions by SDS-PAGE; standards CA, BSA, AD, amylase, apoferritin
[4] = biological target: GFP-OsKCH2(289–767) (O. sativa); assay: single-molecule photobleaching (TIRF microscopy); GFP-tagged motors bound to surface-immobilized microtubules in the single-molecule motility buffer without ATP, room temperature; photobleaching steps counted
[5] = biological target: GFP-OsKCH2(289–767) (O. sativa); assay: sucrose gradient centrifugation; 5–20% sucrose gradient in BRB80 with 25 mM KCl, 150,000 x g, 4 °C, 18 h; fractions by SDS-PAGE; standards CA, BSA, AD, amylase, apoferritin
[6] = biological target: the molecule itself; assay: not stated; oligomeric state of GFP-OsKCH1(292–744), Supplementary Fig. 5d, e; legend not shown

Molecule: GFP-OsKCH2(289–767)^T (domain or fragment)
stoichiometry N [2]: 4

Molecule: GFP-OsKCH2(289–720) (domain or fragment)
stoichiometry N [3]: 2

B1: GFP-OsKCH1(292–744) (domain or fragment, O. sativa, UniProt Q0IMS9 292-744, looked up)
chain: GEVKQFQLEAQTNFDVQQKQIQELKGALSFVKSGMEQLRLQYSEEFAKLGKHFYTLSNAASSYHKVLEENRKLYNQIQDLKGNIRVYCRVRPFLPGHRSLSSSVADTEERTITIITPTKYGKDGCKSFSFNRVFGPASTQEEVFSDMQPLIRSVLDGFNVCIFAYGQTGSGKTFTMSGPKVLTEESLGVNYRALNDLFNIKAQRKGTIDYEISVQMIEIYNEQVRDLLQDGGNRRLEIRNTPQKGLAVPDASIVPVTSTADVVELMNQGQKNRAVGSTAINDRSSRSHSCLSVHVQGKYLTSGAMLRGCMHLVDLAGSERVDKSEVVGDRLKEAQYINKSLSALGDVIASLAQKNSHVPYRNSKLTQLLQDSLGGQAKTLMFVHVSPELDAVGETISTLKFAERVASVELGAAKANKEGSEVRELKEQIATLKAALAKKEGEPENIQSTQSSP
notes: codon-optimized synthetic cDNA; source: E. coli BL21 Rosetta (DE3), purified (Talon beads); not shown: GFP, N-terminal, kept
stoichiometry N [6]: 2

Further lines, results first:

stoichiometry N [1]: 2
Molecule: GFP-OsKCH1/KCH2 (from UniProt Q0IMS9 292-705) (domain or fragment)

stoichiometry N [4]: 2
stoichiometry N [5]: 2
Molecule: GFP-OsKCH2(289–767) (domain or fragment)

— PMC5852081, “The preprophase band-associated kinesin-14 OsKCH2 is a processive minus-end-directed microtubule motor” (Nature Communications, 2018)
